Assay results as given in patent US20190271021A1.
Substitutions are numbered along the chain they refer to. Names and notes keep the numbering of the source. Like-named read-outs stand apart in the source and are kept apart here.

B1: pre-pro-BDNF(-RGD)-myc-His6 (ligand)
chain: APMKEANIRGQGGLAYPGVRTHGTLESVNGPKAGSRGLTSLADTFEHVIEELLDEDQKVRPNEENNKDADLYTSRVMLSSQVPLEPPLLFLLEEYKNYLDAANMSMRVRRHSDPARRGELSVCDSISEWVTAADKKTAVDMSGGTVTVLEKVPVSKGQLKQYFYETKCNPMGYTKEGCRGIDKRHWNSQCRTTQSYVRALTMDSKKRIGWRFIRIDTSCVCTLTIKGSGEQKLISEEDLGSGHHHHHH
B2: pre-pro(His6-R54A-IgA)-BDNF(-RGR) (ligand)
chain: MTILFLTMVISYFGCMKAAPMKEANIHHHHHHAPMKEANIRGQGGLAYPGVRTHGTLESVNGPKAGSAGLTSLADTFEHVIEELLDEDQKVRPNEENNKDADLYTSRVMLSSQVPLEPPLLFLLEEYKNYLDAANMSMGSVVAPPAPHSDPARRGELSVCDSISEWVTAADKKTAVDMSGGTVTVLEKVPVSKGQLKQYFYETKCNPMGYTKEGCRGIDKRHWNSQCRTTQSYVRALTMDSKKRIGWRFIRIDTSCVCTLTIK
B3: pre-pro(IgA)-BDNF(-RGR)-His6 (ligand)
chain: MTILFLTMVISYFGCMKAAPMKEANIRGQGGLAYPGVRTHGTLESVNGPKAGSRGLTSLADTFEHVIEELLDEDQKVRPNEENNKDADLYTSRVMLSSQVPLEPPLLFLLEEYKNYLDAANMSMGSVVAPPAPHSDPARRGELSVCDSISEWVTAADKKTAVDMSGGTVTVLEKVPVSKGQLKQYFYETKCNPMGYTKEGCRGIDKRHWNSQCRTTQSYVRALTMDSKKRIGWRFIRIDTSCVCTLTIKGSGHHHHHH
B4: pre-pro-BDNF(-RGR)-opsin(S)-His6 (ligand)
chain: APMKEANIRGQGGLAYPGVRTHGTLESVNGPKAGSRGLTSLADTFEHVIEELLDEDQKVRPNEENNKDADLYTSRVMLSSQVPLEPPLLFLLEEYKNYLDAANMSMRVRRHSDPARRGELSVCDSISEWVTAADKKTAVDMSGGTVTVLEKVPVSKGQLKQYFYETKCNPMGYTKEGCRGIDKRHWNSQCRTTQSYVRALTMDSKKRIGWRFIRIDTSCVCTLTIKGSGNGTEGPNFYVPFSNATGSGHHHHHH
B5: pre-pro-BDNF-T7-His6 (ligand)
chain: APMKEANIRGQGGLAYPGVRTHGTLESVNGPKAGSRGLTSLADTFEHVIEELLDEDQKVRPNEENNKDADLYTSRVMLSSQVPLEPPLLFLLEEYKNYLDAANMSMRVRRHSDPARRGELSVCDSISEWVTAADKKTAVDMSGGTVTVLEKVPVSKGQLKQYFYETKCNPMGYTKEGCRGIDKRHWNSQCRTTQSYVRALTMDSKKRIGWRFIRIDTSCVCTLTIKRGRGSGMASMTGGQQMGHHHHHH
B6: pre-pro(R54A)-BDNF(-RGR)-His6 (ligand)
chain: HSDPARRGELSVCDSISEWVTAADKKTAVDMSGGTVTVLEKVPVSKGQLKQYFYETKCNPMGYTKEGCRGIDKRHWNSQCRTTQSYVRALTMDSKKRIGWRFIRIDTSCVCTLTIKGSGHHHHHH
B7: pre-pro(His6-R54A)-BDNF(-RGR) (ligand)
chain: MTILFLTMVISYFGCMKAAPMKEANIHHHHHHAPMKEANIRGQGGLAYPGVRTHGTLESVNGPKAGSAGLTSLADTFEHVIEELLDEDQKVRPNEENNKDADLYTSRVMLSSQVPLEPPLLFLLEEYKNYLDAANMSMRVRRHSDPARRGELSVCDSISEWVTAADKKTAVDMSGGTVTVLEKVPVSKGQLKQYFYETKCNPMGYTKEGCRGIDKRHWNSQCRTTQSYVRALTMDSKKRIGWRFIRIDTSCVCTLTIK
B8: pre-pro-BDNF(-RGR; G62N, Y63G, Q79T)-T7-His6 (ligand)
chain: APMKEANIRGQGGLAYPGVRTHGTLESVNGPKAGSRGLTSLADTFEHVIEELLDEDQKVRPNEENNKDADLYTSRVMLSSQVPLEPPLLFLLEEYKNYLDAANMSMRVRRHSDPARRGELSVCDSISEWVTAADKKTAVDMSGGTVTVLEKVPVSKGQLKQYFYETKCNPMNGTKEGCRGIDKRHWNSTCRTTQSYVRALTMDSKKRIGWRFIRIDTSCVCTLTIKGSGMASMTGGQQMGHHHHHH
B9: pre-pro-BDNF(-RGR; T35N, G62N, Y63G, Q79T)-T7-His6 (ligand)
chain: B8 chain with T145N
B10: pre-pro-BDNF(-RGR; K25N, Q79T)-T7-His6 (ligand)
chain: B8 chain with K135N, N172G, G173Y
B11: pre-pro-BDNF(-RGR; R81N)-T7-His6 (ligand)
chain: B8 chain with N172G, G173Y, T189Q, R191N
modifications: N-glycan at the introduced site (degree of glycosylation ++)
B12: pre-pro-BDNF(-RGR; T35N; G62N; Y63G)-T7-His6 (ligand)
chain: B8 chain with T145N, T189Q
B13: pre-pro-BDNF(-RGR; K25N; G62N; Y63G)-T7-His6 (ligand)
chain: B8 chain with K135N, T189Q
B14: pre-pro-BDNF(-RGR; G62N, Y63G, R81N)-T7-His6 (ligand)
chain: B8 chain with T189Q, R191N
B15: pre-pro-BDNF(-RGR; Q79T, R81N)-T7-His6 (ligand)
chain: B8 chain with N172G, G173Y, R191N
B16: pre-pro-BDNF(-RGR; T35N, Q79T)-T7-His6 (ligand)
chain: B8 chain with T145N, N172G, G173Y
B17: pre-pro-BDNF(-RGR; Q79S)-T7-His6 (ligand)
chain: B8 chain with N172G, G173Y, T189S
B18: pre-pro-BDNF(-RGR)-opsin(S)-T7-His6 (ligand)
chain: APMKEANIRGQGGLAYPGVRTHGTLESVNGPKAGSRGLTSLADTFEHVIEELLDEDQKVRPNEENNKDADLYTSRVMLSSQVPLEPPLLFLLEEYKNYLDAANMSMRVRRHSDPARRGELSVCDSISEWVTAADKKTAVDMSGGTVTVLEKVPVSKGQLKQYFYETKCNPMGYTKEGCRGIDKRHWNSQCRTTQSYVRALTMDSKKRIGWRFIRIDTSCVCTLTIKGSGNGTEGPNFYVPFSNATGSGMASMTGGQQMGHHHHHH
B19: pre-pro-BDNF(-RGR)-T7-His6 (ligand)
chain: HSDPARRGELSVCDSISEWVTAADKKTAVDMSGGTVTVLEKVPVSKGQLKQYFYETKCNPMGYTKEGCRGIDKRHWNSQCRTTQSYVRALTMDSKKRIGWRFIRIDTSCVCTLTIKGSGMASMTGGQQMGHHHHHH
B20: pre-pro-BDNF(-RGR)-opsin(L)-His6 (ligand)
chain: APMKEANIRGQGGLAYPGVRTHGTLESVNGPKAGSRGLTSLADTFEHVIEELLDEDQKVRPNEENNKDADLYTSRVMLSSQVPLEPPLLFLLEEYKNYLDAANMSMRVRRHSDPARRGELSVCDSISEWVTAADKKTAVDMSGGTVTVLEKVPVSKGQLKQYFYETKCNPMGYTKEGCRGIDKRHWNSQCRTTQSYVRALTMDSKKRIGWRFIRIDTSCVCTLTIKGSGNGTEGPNFYVPFSNATGVVRHHHHHH
B21: pre-pro-BDNF, RGR deleted, GSG, C-terminal His6, R54A, IgA protease cleavage site (row 2 of Table 9) (ligand)
chain: APMKEANIRGQGGLAYPGVRTHGTLESVNGPKAGSAGLTSLADTFEHVIEELLDEDQKVRPNEENNKDADLYTSRVMLSSQVPLEPPLLFLLEEYKNYLDAANMSMGSVVAPPAPHSDPARRGELSVCDSISEWVTAADKKTAVDMSGGTVTVLEKVPVSKGQLKQYFYETKCNPMGYTKEGCRGIDKRHWNSQCRTTQSYVRALTMDSKKRIGWRFIRIDTSCVCTLTIKGSGHHHHHH

Tests used:
[1] = biological target: human TrkB on CHO cells (CHO-K1-hTrkB/pSRE-Luc) (human) (UniProt Q16620); test: cell-based or functional assay
[2] = biological target: human TrkB on CHO cells (CHO-K1-hTrkB/pSRE-Luc) (human) (UniProt Q16620); test: cell-based or functional assay; remark: listed apart in the source

Sequence of human TrkB on CHO cells (CHO-K1-hTrkB/pSRE-Luc) (human) (Q16620 32-822): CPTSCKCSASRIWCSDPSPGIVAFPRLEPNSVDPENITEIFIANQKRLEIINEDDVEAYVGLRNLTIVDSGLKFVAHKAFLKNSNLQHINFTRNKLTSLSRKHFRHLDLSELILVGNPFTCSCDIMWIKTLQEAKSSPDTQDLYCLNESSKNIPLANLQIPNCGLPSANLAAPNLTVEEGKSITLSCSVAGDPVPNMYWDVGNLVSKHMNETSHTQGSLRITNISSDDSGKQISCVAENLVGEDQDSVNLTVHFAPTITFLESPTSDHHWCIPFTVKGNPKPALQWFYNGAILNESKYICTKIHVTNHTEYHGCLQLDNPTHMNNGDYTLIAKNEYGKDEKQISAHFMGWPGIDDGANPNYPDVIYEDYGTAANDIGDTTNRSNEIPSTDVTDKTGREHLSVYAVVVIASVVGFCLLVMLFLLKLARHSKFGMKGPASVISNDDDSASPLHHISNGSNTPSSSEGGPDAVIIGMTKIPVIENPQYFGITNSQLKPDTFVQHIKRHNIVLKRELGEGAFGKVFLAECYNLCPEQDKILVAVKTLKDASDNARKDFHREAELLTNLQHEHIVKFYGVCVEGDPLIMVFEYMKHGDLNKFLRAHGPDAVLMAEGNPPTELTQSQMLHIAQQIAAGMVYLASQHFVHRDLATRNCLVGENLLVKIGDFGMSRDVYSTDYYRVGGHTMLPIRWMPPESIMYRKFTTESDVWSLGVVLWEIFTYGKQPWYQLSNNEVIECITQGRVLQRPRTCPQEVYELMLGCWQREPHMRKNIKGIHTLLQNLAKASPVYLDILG

Row | Binder | BDNF activity in TrkBluciferase assay, EC50 [nM] [2] [nM] | BDNF activity in TrkBluciferase assay, EC50 [% or nM] [2] | other results
1 | B1 | – | – | BDNF activity in TrkBluciferase assay, EC50 [nM] [1]: 0.36 nM
2 | B2 | 9.6 | – | –
3 | B3 | 9.6 | 282% | –
4 | B4 | 0.3 | – | –
5 | B5 | – | – | BDNF activity in TrkBluciferase assay, EC50 [nM] [1]: 3 nM
6 | B6 | 1.2 | – | –
7 | B7 | 1.2 | – | –
8 | B8 | – | 0.13 nM | –
9 | B9 | – | 0.069 nM | –
10 | B10 | – | 0.21 nM | –
11 | B11 | 0.8 | – | –
12 | B12 | – | 0.039 nM | –
13 | B13 | – | 276% | –
14 | B14 | – | 203% | –
15 | B15 | – | 0.05 nM | –
16 | B16 | – | 0.064 nM | –
17 | B17 | 6.9 | – | –
18 | B18 | 0.3 | – | –
19 | B19 | 3.4 | 100% | relative BDNF activity in TrkB luciferase assay, EC50 [%] [2]: 100%; BDNF activity in TrkBluciferase assay, EC50 [nM] [1]: 3 nM
20 | B20 | 0.3 | 555% | relative BDNF activity in TrkB luciferase assay, EC50 [%] [2]: 10%
21 | B21 | 9.6 | – | –
